# Data as given in patent publication US20240270846A1 (published 2024).
# Changes are numbered by the printed parent chain. In names and notes the source's numbering stands.
# B1: GLS3000 N30P one-arm antibody (H chain CE115HA000) (antibody, human IgG1, kappa, L234A L235A, N297A, name in Kabat numbering)
# heavy: QVQLVESGGGVVQPGRSLRLSCAASGFTFSNAWMHWVRQAPGKGLEWVAQIKAKSNNYATYYAESVKGRFTISRDDSKNSLYLQMNSLKTEDTAVYYCRYVHYGAYYGVDAWGQGTTVTVSSASTKGPSVFPLAPSSKSTSGGTAALGCLVKDYFPEPVTVSWNSGALTSGVHTFPAVLQSSGLYSLSSVVTVPSSSLGTQTYICNVNHKPSNTKVDKKVEPKSCDKTHTCPPCPAPEAAGGPSVFLFPPKPKDTLMISRTPEVTCVVVDVSHEDPEVKFNWYVDGVEVHNAKTKPREEQYASTYRVVSVLTVLHQDWLNGKEYKCKVSNKALPAPIEKTISKAKGQPREPQVYTLPPSRCELTKNQVSLSCAVKGFYPSDIAVEWESNGQPENNYKTTPPVLDSDGSFFLVSKLTVDKSRWQQGNVFSCSVMHEALHNHYTQKSLSLSPDYKDDDDK
# chain: EPKSSDKTHTCPPCPAPELLGGPSVFLFPPKPKDTLMISRTPEVTCVVVDVSHEDPEVKFNWYVDGVEVHNAKTKPREEQYNSTYRVVSVLTVLHQDWLNGKEYKCKVSNKALPAPIEKTISKAKGQPREPQVCTLPPSRDELTKNQVSLWCLVKGFYPSDIAVEWESNGQPENNYKTTPPVLDSDGSFFLYSKLTVDKSRWQQGNVFSCSVMHEALHNRYTQKSLSLSP
# light: DIVMTQSPLSLPVTPGEPASISCRSSQSLVHSNRPTYLHWYQQKPGQAPRLLIYKVSNRFSGVPDRFSGSGSGTDFTLKISRVEAEDVGVYYCGQGTQVPYTFGQGTKLEIKRTVAAPSVFIFPPSDEQLKSGTASVVCLLNNFYPREAKVQWKVDNALQSGNSQESVTEQDSKDSTYSLSSTLTLSKADYEKHKVYACEVTHQGLSSPVTKSFNRGEC
# notes: one-arm antibody
# B2: GLS3000 Q27L one-arm antibody (H chain CE115HA000) (antibody, human IgG1, kappa, L234A L235A, N297A, name in Kabat numbering)
# heavy: B1 heavy
# chain: B1 chain
# light: B1 light with Q27L, P35N
# notes: one-arm antibody
# B3: GLS3000 N53A one-arm antibody (H chain CE115HA000) (antibody, human IgG1, kappa, L234A L235A, N297A, name in Kabat numbering)
# heavy: B1 heavy
# chain: B1 chain
# light: B1 light with P35N, N58A
# notes: one-arm antibody
# B4: GLS3000 N30V one-arm antibody (H chain CE115HA000) (antibody, human IgG1, kappa, L234A L235A, N297A, name in Kabat numbering)
# heavy: B1 heavy
# chain: B1 chain
# light: B1 light with P35V
# notes: one-arm antibody
# B5: GLS3000 N30Y one-arm antibody (H chain CE115HA000) (antibody, human IgG1, kappa, L234A L235A, N297A, name in Kabat numbering)
# heavy: B1 heavy
# chain: B1 chain
# light: B1 light with P35Y
# notes: one-arm antibody
# B6: GLS3000 R24Y one-arm antibody (H chain CE115HA000) (antibody, human IgG1, kappa, L234A L235A, N297A, name in Kabat numbering)
# heavy: B1 heavy
# chain: B1 chain
# light: B1 light with R24Y, P35N
# notes: one-arm antibody
# B7: GLS3000 N30W one-arm antibody (H chain CE115HA000) (antibody, human IgG1, kappa, L234A L235A, N297A, name in Kabat numbering)
# heavy: B1 heavy
# chain: B1 chain
# light: B1 light with P35W
# notes: one-arm antibody
# B8: GLS3000 R29S one-arm antibody (H chain CE115HA000) (antibody, human IgG1, kappa, L234A L235A, N297A, name in Kabat numbering)
# heavy: B1 heavy
# chain: B1 chain
# light: B1 light with R34S, P35N
# notes: one-arm antibody
# B9: GLS3000 Q27P one-arm antibody (H chain CE115HA000) (antibody, human IgG1, kappa, L234A L235A, N297A, name in Kabat numbering)
# heavy: B1 heavy
# chain: B1 chain
# light: B1 light with Q27P, P35N
# notes: one-arm antibody
# B10: GLS3000 R24Q one-arm antibody (H chain CE115HA000) (antibody, human IgG1, kappa, L234A L235A, N297A, name in Kabat numbering)
# heavy: B1 heavy
# chain: B1 chain
# light: B1 light with R24Q, P35N
# notes: one-arm antibody
# B11: GLS3000 R29A one-arm antibody (H chain CE115HA000) (antibody, human IgG1, kappa, L234A L235A, N297A, name in Kabat numbering)
# heavy: B1 heavy
# chain: B1 chain
# light: B1 light with R34A, P35N
# notes: one-arm antibody
# B12: GLS3000 R24E one-arm antibody (H chain CE115HA000) (antibody, human IgG1, kappa, L234A L235A, N297A, name in Kabat numbering)
# heavy: B1 heavy
# chain: B1 chain
# light: B1 light with R24E, P35N
# notes: one-arm antibody
# B13: GLS3000 Q27R one-arm antibody (H chain CE115HA000) (antibody, human IgG1, kappa, L234A L235A, N297A, name in Kabat numbering)
# heavy: B1 heavy
# chain: B1 chain
# light: B1 light with Q27R, P35N
# notes: one-arm antibody
# B14: GLS3000 R24P one-arm antibody (H chain CE115HA000) (antibody, human IgG1, kappa, L234A L235A, N297A, name in Kabat numbering)
# heavy: B1 heavy
# chain: B1 chain
# light: B1 light with R24P, P35N
# notes: one-arm antibody
# B15: GLS3000 R24T one-arm antibody (H chain CE115HA000) (antibody, human IgG1, kappa, L234A L235A, N297A, name in Kabat numbering)
# heavy: B1 heavy
# chain: B1 chain
# light: B1 light with R24T, P35N
# notes: one-arm antibody
# B16: GLS3000 N30Q one-arm antibody (H chain CE115HA000) (antibody, human IgG1, kappa, L234A L235A, N297A, name in Kabat numbering)
# heavy: B1 heavy
# chain: B1 chain
# light: B1 light with P35Q
# notes: one-arm antibody
# B17: GLS3000 R29P one-arm antibody (H chain CE115HA000) (antibody, human IgG1, kappa, L234A L235A, N297A, name in Kabat numbering)
# heavy: B1 heavy
# chain: B1 chain
# light: B1 light with R34P, P35N
# notes: one-arm antibody
# B18: GLS3000 R29D one-arm antibody (H chain CE115HA000) (antibody, human IgG1, kappa, L234A L235A, N297A, name in Kabat numbering)
# heavy: B1 heavy
# chain: B1 chain
# light: B1 light with R34D, P35N
# notes: one-arm antibody
# B19: GLS3000 R24S one-arm antibody (H chain CE115HA000) (antibody, human IgG1, kappa, L234A L235A, N297A, name in Kabat numbering)
# heavy: B1 heavy
# chain: B1 chain
# light: B1 light with R24S, P35N
# notes: one-arm antibody
# B20: GLS3000 R24A one-arm antibody (H chain CE115HA000) (antibody, human IgG1, kappa, L234A L235A, N297A, name in Kabat numbering)
# heavy: B1 heavy
# chain: B1 chain
# light: B1 light with R24A, P35N
# notes: one-arm antibody
# B21: GLS3000 Q27E one-arm antibody (H chain CE115HA000) (antibody, human IgG1, kappa, L234A L235A, N297A, name in Kabat numbering)
# heavy: B1 heavy
# chain: B1 chain
# light: B1 light with Q27E, P35N
# notes: one-arm antibody
# B22: GLS3000 N53D one-arm antibody (H chain CE115HA000) (antibody, human IgG1, kappa, L234A L235A, N297A, name in Kabat numbering)
# heavy: B1 heavy
# chain: B1 chain
# light: B1 light with P35N, N58D
# notes: one-arm antibody
# B23: GLS3000 N30R one-arm antibody (H chain CE115HA000) (antibody, human IgG1, kappa, L234A L235A, N297A, name in Kabat numbering)
# heavy: B1 heavy
# chain: B1 chain
# light: B1 light with P35R
# notes: one-arm antibody
# B24: GLS3000 R24D one-arm antibody (H chain CE115HA000) (antibody, human IgG1, kappa, L234A L235A, N297A, name in Kabat numbering)
# heavy: B1 heavy
# chain: B1 chain
# light: B1 light with R24D, P35N
# notes: one-arm antibody
# B25: GLS3000 Q27D one-arm antibody (H chain CE115HA000) (antibody, human IgG1, kappa, L234A L235A, N297A, name in Kabat numbering)
# heavy: B1 heavy
# chain: B1 chain
# light: B1 light with Q27D, P35N
# notes: one-arm antibody
# B26: GLS3000 R29G one-arm antibody (H chain CE115HA000) (antibody, human IgG1, kappa, L234A L235A, N297A, name in Kabat numbering)
# heavy: B1 heavy
# chain: B1 chain
# light: B1 light with R34G, P35N
# notes: one-arm antibody
# B27: GLS3000 R29T one-arm antibody (H chain CE115HA000) (antibody, human IgG1, kappa, L234A L235A, N297A, name in Kabat numbering)
# heavy: B1 heavy
# chain: B1 chain
# light: B1 light with R34T, P35N
# notes: one-arm antibody
# B28: GLS3000 R29L one-arm antibody (H chain CE115HA000) (antibody, human IgG1, kappa, L234A L235A, N297A, name in Kabat numbering)
# heavy: B1 heavy
# chain: B1 chain
# light: B1 light with R34L, P35N
# notes: one-arm antibody
# B29: GLS3000 R29I one-arm antibody (H chain CE115HA000) (antibody, human IgG1, kappa, L234A L235A, N297A, name in Kabat numbering)
# heavy: B1 heavy
# chain: B1 chain
# light: B1 light with R34I, P35N
# notes: one-arm antibody
# B30: GLS3000 R24G one-arm antibody (H chain CE115HA000) (antibody, human IgG1, kappa, L234A L235A, N297A, name in Kabat numbering)
# heavy: B1 heavy
# chain: B1 chain
# light: B1 light with R24G, P35N
# notes: one-arm antibody
# B31: GLS3000 N30T one-arm antibody (H chain CE115HA000) (antibody, human IgG1, kappa, L234A L235A, N297A, name in Kabat numbering)
# heavy: B1 heavy
# chain: B1 chain
# light: B1 light with P35T
# notes: one-arm antibody
# B32: GLS3000 N30S one-arm antibody (H chain CE115HA000) (antibody, human IgG1, kappa, L234A L235A, N297A, name in Kabat numbering)
# heavy: B1 heavy
# chain: B1 chain
# light: B1 light with P35S
# notes: one-arm antibody
# Biological target: T1, CD3 epsilon homodimer protein (UniProt P07766 23-126)
# T1 construct: also called CD3 (CD3 epsilon)
# T1 sequence (P07766 23-126): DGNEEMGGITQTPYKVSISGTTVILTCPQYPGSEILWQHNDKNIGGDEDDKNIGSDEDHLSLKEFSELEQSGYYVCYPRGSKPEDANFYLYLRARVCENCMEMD
# Assay: SPR, CD3e homodimer on chip;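 also: surface plasmon resonance at 25 degrees C, antibodies flowed as analyte over CD3 epsilon homodimer amine-coupled to a CM4 chip, running buffer HBS-EP+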
row,ratio of amounts bound (altered form / unaltered GLS3000 antibody),Binder
1,0.31,B1
2,0.92,B2
3,0.61,B3
4,0.61,B4
5,1.04,B5
6,0.87,B6
7,0.99,B7
8,0.68,B8
9,0.29,B9
10,0.9,B10
11,0.63,B11
12,0.83,B12
13,1.19,B13
14,0.7,B14
15,0.88,B15
16,0.87,B16

row,ratio of amounts bound (altered form / unaltered GLS3000 antibody),Binder
1,0.31,B17
2,0.41,B18
3,0.89,B19
4,0.86,B20
5,0.88,B21
6,0.34,B22
7,1.86,B23
8,0.75,B24
9,0.85,B25
10,0.67,B26
11,0.63,B27
12,0.56,B28
13,0.37,B29
14,0.89,B30
15,0.29,B31
16,0.29,B32
